This note sets out measurements from article PMC4731814.

The target in experiment [1] is tricellulin first extracellular loop fragment, wild type (human) (UniProt Q8N4S9). The experiment can be described thus: SPR; BIAcore X; tricellulin proteins amine-coupled on a CM5 chip; human PLG as analyte at 62.5-1000 nM; HBS-P buffer pH 7.4, 0.15 M NaCl, 37 °C, 30 μl/min; 1:1 Langmuir binding model.
The target in experiment [2] is tricellulin second extracellular loop fragment (human) (UniProt Q8N4S9). The experiment is described as above.
In experiment [3] the target is tricellulin first extracellular loop fragment K252A (human) (UniProt Q8N4S9). Described as above.
Experiment [4] addresses tricellulin first extracellular loop fragment K217A K252A (human) (UniProt Q8N4S9). The description is as above.
Experiment [5] deals with tricellulin first extracellular loop fragment K217A (human) (UniProt Q8N4S9). Described as above.
The next experiment deals with human plasminogen. The experiment can be described thus: ELISA. As to conditions: bacteria OD600 = 0.6 bound to microtiter plates; 1 μM human PLG; parent: est. 0.29; read off a plot. A general note: An ELISA detects its analyte on a solid surface through an enzyme-linked reagent.

In the case of human plasminogen (natural protein), the dissociation constant (Kd) (commonly a measure of binding affinity in units of concentration) in experiment [1] amounted to 51.5 nM; in experiment [2] it was 1270 nM; in experiment [3], 3.13 µM; in experiment [4], 1030 nM; in experiment [5], 183 nM. Also, the dissociation rate constant (koff) (as a rule, the first-order rate constant of dissociation) was 7.13 s⁻¹ in experiment [1]; 0.214 s⁻¹ in experiment [2]; 0.0184 s⁻¹ in experiment [3]; 0.0742 s⁻¹ in experiment [4]; 0.0298 s⁻¹ in experiment [5]. Besides, the kon (in general, a measure of how fast the partners come together) in experiment [1] stood at 1.39e+08 M⁻¹ s⁻¹; in experiment [2], 169000 M⁻¹ s⁻¹; in experiment [3] it was 5890 M⁻¹ s⁻¹; in experiment [4] it was 72400 M⁻¹ s⁻¹; in experiment [5] it was 165000 M⁻¹ s⁻¹.

For “streptococcal surface enolase on GAS strain NIH35 (wild type) (from UniProt P69949) K252L; K255L”, the response in the experiment with human plasminogen was 0.23 A450.

As for “streptococcal surface enolase on GAS strain NIH35 (wild type) (from UniProt P69949) K252L; K255L; K434L; K435L”, the response in the experiment with human plasminogen was 0.17 A450.

“streptococcal surface enolase on GAS strain NIH35 (wild type) (from UniProt P69949) K434L; K435L”: the response in the experiment with human plasminogen was determined as 0.3 A450.
